Assay results from US20250297004A1, “NECTIN-4 BINDING AGENTS” (INNATE PHARMA, priority 2022, published 2025).

B1: 5E7 (antibody, V domains shown)
VH: QVQLQQPGAELVKPGASVKLSCKASGYIFTSYWMHWVKQRPGQGLEWIGEIDPSDSYTNYNQKFKGKATLTLDKSSSTTYMQLSSLTSEDSAVYYCVRGYGNYGDYWGQGTTLTVSSASTKGP
VL: DVVMTQAAFSNPVTLGTSASISCRSSKSLLHSNGITYLYWYLQKPGQSPQLLIYQMSNLASGVPDRFSSSGSGTDFTLRISRVEAEDVGVYYCAQNLELPWTFGGGTKLEIKRTVAAP
B2: chimeric parental 5E7 antibody (antibody, V domains shown)
VH: QVQLQQPGAELVKPGASVKLSCKASGYIFTSYWMHWVKQRPGQGLEWIGEIDPSDSYTNYNQKFKGKATLTLDKSSSTTYMQLSSLTSEDSAVYYCVRGYGNYGDYWGQGTTLTVSS
VL: DVVMTQAAFSNPVTLGTSASISCRSSKSLLHSNGITYLYWYLQKPGQSPQLLIYQMSNLASGVPDRFSSSGSGTDFTLRISRVEAEDVGVYYCAQNLELPWTFGGGTKLEIKR
notes: Chimeric antibody, murine variable domains with human constant regions; also called ch5E7; CHG1-M-1N4-5E7

How the values were obtained:
[1] = target: T1, human Nectin-4 (Homo sapiens, UniProt Q96NY8); test: Species cross-reactivity, binding to Nectin-4
T1 sequence (Q96NY8 32-510): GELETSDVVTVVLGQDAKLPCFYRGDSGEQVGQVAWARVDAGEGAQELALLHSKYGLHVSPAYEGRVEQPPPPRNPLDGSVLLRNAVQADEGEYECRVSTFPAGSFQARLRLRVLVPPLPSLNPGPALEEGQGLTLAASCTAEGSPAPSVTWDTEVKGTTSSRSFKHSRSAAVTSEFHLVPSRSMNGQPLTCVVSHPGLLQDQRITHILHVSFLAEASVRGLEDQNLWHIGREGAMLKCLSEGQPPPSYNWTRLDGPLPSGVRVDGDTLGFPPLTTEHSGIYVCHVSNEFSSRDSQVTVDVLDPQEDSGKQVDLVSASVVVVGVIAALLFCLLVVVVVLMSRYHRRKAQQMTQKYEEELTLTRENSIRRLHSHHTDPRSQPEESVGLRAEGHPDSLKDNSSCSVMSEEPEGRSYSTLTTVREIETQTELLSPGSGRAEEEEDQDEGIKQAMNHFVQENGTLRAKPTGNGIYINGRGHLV
Method: (§1) Anti-Nectin-4 antibodies were tested by flow cytometry for binding to different CHO cell lines made to express respectively the mouse, cynomolgus and rat Nectin-4 protein (including an N-terminal V5 tag not shown in the sequences below).
Antibody 5E7 bound human, cynomolgus, as well as rat Nectin 4 proteins but lack binding to the mouse Nectin 4 protein. FIGS. 6A and 6B show binding of anti-Nectin-4 antibodies on rat and cynomolgus Nectin-4-expressing CHO cell lines.

[2] = test system: rat Nectin-4 protein expressed on CHO cells; test: Species cross-reactivity by flow cytometry on CHO cell lines; assay type: binding; conditions: FIG. 6A
Method: as §1
(§2) The mature amino acid sequence of the proteins expressed by the cells were as follows: […]

[3] = test system: cynomolgus Nectin-4 protein expressed on CHO cells; test: as above; assay type: binding; conditions: FIG. 6B
Method: as §1, §2

[4] = target: T2, mouse Nectin-4 protein expressed on CHO cells (Mus musculus, UniProt Q8R007); test: as above; assay type: binding
T2 construct: V5 (N); expressed in transfected cells; host or cells: CHO
T2 sequence (Q8R007 32-508): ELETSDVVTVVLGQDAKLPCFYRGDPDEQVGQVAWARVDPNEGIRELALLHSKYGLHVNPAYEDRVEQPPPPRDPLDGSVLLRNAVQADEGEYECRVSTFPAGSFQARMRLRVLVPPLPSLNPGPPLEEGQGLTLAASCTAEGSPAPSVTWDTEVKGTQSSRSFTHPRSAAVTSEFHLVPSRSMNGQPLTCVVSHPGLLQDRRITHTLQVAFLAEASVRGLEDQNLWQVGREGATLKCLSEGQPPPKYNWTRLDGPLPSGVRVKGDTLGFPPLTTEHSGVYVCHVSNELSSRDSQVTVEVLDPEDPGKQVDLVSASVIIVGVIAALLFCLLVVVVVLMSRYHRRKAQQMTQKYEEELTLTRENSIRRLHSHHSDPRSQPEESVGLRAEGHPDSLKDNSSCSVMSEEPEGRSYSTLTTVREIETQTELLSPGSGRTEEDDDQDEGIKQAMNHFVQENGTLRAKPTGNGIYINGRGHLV
Method: as §1, §2

[5] = target: T1, human Nectin-4; test: Binding to human Nectin-4 by SPR; conditions: for ka: SPR association constant; for kd: SPR dissociation constant; for Kd: SPR, human IgG1 isotype antibodies
How it was run: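 Humanized variants expressed and purified as human IgG1 and tested by SPR against human Nectin-4. Association (ka, 1/Ms) and dissociation (kd, 1/s) rate constants were fitted, and affinity is reported as KD (nM).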

[6] = target: human Nectin-4 (protein used in the SPR affinity measurements) (human) (UniProt Q96NY8); test: SPR
[7] = target: T3, human Nectin-4 expressed on cells (human, UniProt Q96NY8 32-510); test: cell-based or functional assay
T3 sequence: T1 sequence (Q96NY8 32-510)

[8] = target: T4, rat Nectin-4 protein expressed on CHO cells (rat, UniProt Q8R007 31-508 (mouse entry)); test: flow cytometry on CHO cells expressing rat Nectin-4, Median MFI (PE)
T4 construct: no cleavage site is stated; also called Rat Nectin-4 V5
T4 chain: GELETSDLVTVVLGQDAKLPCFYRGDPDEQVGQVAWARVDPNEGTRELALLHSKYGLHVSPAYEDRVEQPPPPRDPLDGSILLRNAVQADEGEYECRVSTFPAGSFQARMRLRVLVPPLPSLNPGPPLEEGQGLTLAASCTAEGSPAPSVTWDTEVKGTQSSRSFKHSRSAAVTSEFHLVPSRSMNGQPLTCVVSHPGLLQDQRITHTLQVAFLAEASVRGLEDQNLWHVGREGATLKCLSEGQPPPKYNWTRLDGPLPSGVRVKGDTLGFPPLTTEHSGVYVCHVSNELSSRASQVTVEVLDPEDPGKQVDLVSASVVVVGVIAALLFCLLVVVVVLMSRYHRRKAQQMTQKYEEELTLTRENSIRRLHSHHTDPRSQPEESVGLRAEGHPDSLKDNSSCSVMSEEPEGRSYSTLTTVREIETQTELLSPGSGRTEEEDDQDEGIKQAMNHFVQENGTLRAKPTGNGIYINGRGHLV
Method: as §1

Chain of rat Nectin-4 protein expressed on CHO cells (as listed by the source): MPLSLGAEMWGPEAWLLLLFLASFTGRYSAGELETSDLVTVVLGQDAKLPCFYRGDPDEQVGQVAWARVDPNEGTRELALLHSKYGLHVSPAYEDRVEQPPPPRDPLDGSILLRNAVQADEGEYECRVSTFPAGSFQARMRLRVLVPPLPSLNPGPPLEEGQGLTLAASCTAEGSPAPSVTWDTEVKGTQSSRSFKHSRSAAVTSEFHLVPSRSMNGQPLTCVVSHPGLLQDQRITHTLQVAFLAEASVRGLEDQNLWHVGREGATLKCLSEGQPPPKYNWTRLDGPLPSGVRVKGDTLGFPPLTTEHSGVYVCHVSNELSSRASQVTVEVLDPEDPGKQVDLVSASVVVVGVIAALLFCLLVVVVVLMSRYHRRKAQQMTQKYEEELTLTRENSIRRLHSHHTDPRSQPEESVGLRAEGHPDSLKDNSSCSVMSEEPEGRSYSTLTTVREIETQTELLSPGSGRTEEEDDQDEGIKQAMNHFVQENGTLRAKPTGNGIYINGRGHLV
Chain of cynomolgus Nectin-4 protein expressed on CHO cells (as listed by the source): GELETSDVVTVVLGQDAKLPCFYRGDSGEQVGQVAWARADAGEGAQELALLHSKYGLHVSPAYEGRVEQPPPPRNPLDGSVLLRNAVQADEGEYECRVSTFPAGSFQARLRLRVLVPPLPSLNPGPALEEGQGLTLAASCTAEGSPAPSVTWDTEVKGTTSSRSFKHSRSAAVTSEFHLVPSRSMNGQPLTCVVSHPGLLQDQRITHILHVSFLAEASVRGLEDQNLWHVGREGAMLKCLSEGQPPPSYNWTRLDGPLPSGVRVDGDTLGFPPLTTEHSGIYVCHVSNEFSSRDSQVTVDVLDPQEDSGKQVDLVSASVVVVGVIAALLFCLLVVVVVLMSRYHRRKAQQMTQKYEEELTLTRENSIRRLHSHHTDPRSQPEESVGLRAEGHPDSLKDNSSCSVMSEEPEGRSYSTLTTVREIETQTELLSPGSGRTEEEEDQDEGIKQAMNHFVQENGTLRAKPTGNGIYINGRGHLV

| Molecule | binding to human Nectin 4 protein [1] | binding to rat Nectin 4 protein [2] | binding to cynomolgus Nectin 4 protein [3] | binding to mouse Nectin 4 protein [4] | ka ([5]; first set (Table 4)) [M⁻¹ s⁻¹] | ka ([5]; second set (Table 7)) [M⁻¹ s⁻¹] | kd ([5]; first set (Table 4)) [s⁻¹] | kd ([5]; second set (Table 7)) [s⁻¹] | Kd ([5]; first set (Table 4)) [nM] | Kd ([5]; second set (Table 7)) [nM] | Kd [6] [nM] | koff [6] [s⁻¹] | kon [6] [M⁻¹ s⁻¹] | internalization efficiency on SUM190, normalized to chimeric parental antibody (Fab-ZAP, CTG), experiment 1 [7] | internalization efficiency on SUM190, normalized to chimeric parental antibody (Fab-ZAP, CTG), experiment 2 [7] | EC50 (read off the curve) [8] [µg/mL] |
| --- | --- | --- | --- | --- | --- | --- | --- | --- | --- | --- | --- | --- | --- | --- | --- | --- |
| B1 | bound | bound | bound | lack binding | 480000 ± 1e-05 | 480000 ± 1e-05 | 0.0027 ± 0.0003 | 0.0027 ± 0.0003 | 5.9 ± 1.2 | 5.9 |  |  |  |  |  |  |
| B2 |  |  |  |  |  |  |  |  |  |  | 5.9 | 0.0027 | 480000 | 100 % of chimeric parental | 100 % of chimeric parental | ~0.1 |
